Our source for the Kd values is article PMC12505966, “Soluble MFGE8 mediates cell entry of Crimean-Congo hemorrhagic fever virus” (mBio, 2025).

The target in this assay is T1, CCHFV Gc monomer (Gc10200 aa 1,041-1,579, Strep-Tag II) (Crimean-Congo hemorrhagic fever virus, …, UniProt Q8JSZ3 1041-1579).
T1 construct: also called Gc protein; recombinant Gc monomer
T1 sequence: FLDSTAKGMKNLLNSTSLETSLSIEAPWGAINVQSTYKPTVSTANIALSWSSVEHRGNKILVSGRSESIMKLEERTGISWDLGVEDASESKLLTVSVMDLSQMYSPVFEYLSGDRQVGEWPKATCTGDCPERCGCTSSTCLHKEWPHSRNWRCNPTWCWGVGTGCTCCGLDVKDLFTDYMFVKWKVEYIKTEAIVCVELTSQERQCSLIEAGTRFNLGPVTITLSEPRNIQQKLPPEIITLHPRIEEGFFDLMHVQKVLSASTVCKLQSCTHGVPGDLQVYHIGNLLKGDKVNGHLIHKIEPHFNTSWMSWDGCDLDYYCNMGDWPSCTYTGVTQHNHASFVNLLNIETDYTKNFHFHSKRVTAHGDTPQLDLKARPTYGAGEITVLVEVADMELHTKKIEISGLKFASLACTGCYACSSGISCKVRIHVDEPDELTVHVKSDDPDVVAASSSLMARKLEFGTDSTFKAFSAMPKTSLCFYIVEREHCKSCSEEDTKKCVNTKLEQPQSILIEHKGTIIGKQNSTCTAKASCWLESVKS
In words: BLI; ForteBio Octet Red; […] (15 µg/mL) […]; PBS with 0.02% Tween 20 and 0.1% BSA; 1/1 binding model. The note with it: both partners purified.

B1: Human recombinant MFGE8 protein with His tag at the C-terminus (natural protein, UniProt Q08431 24-387, looked up)
chain: LDICSKNPCHNGGLCEEISQEVRGDVFPSYTCTCLKGYAGNHCETKCVEPLGLENGNIANSQIAASSVRVTFLGLQHWVPELARLNRAGMVNAWTPSSNDDNPWIQVNLLRRMWVTGVVTQGASRLASHEYLKAFKVAYSLNGHEFDFIHDVNKKHKEFVGNWNKNAVHVNLFETPVEAQYVRLYPTSCHTACTLRFELLGCELNGCANPLGLKNNSIPDKQITASSSYKTWGLHLFSWNPSYARLDKQGNFNAWVAGSYGNDQWLQVDLGSSKEVTGIITQGARNFGSVQFVASYKVAYSNDSANWTEYQDPRTGSSKIFPGNWDNHSHKKNLFETPILARYVRILPVAWHNRIALRLELLGC
notes: also called milk fat globule-EGF factor 8 protein; lactadherin; not shown: His tag, C-terminal, kept
As for B1, the Kd was < 1 pM.
